Where a chain is given by its changes, count along the chain named. Numbers in names are those of the source. Values belong to the molecule of their own block, whether it stands above or below them.
Legend:
[1] = molecular target: endogenous p16 of Ishikawa cells (human (endogenous in Ishikawa cells)) (UniProt P42771); assay: cross-linking; lysates of cancer cell lines without added oxidant, SDS lysis buffer, non-reducing SDS-PAGE and western blot for p16
[2] = molecular target: wild-type 6xHis-tagged p16 expressed in HEK293 cells (human) (UniProt P42771); assay: cross-linking; HEK293 cells transiently expressing p16-His variants, 200 µM H2O2 in media for the times indicated, stopped with 10 µg/mL catalase and 50 mM NEM; non-reducing SDS-PAGE and western blot for p16
[3] = molecular target: the molecule itself; assay: cross-linking; intermolecular disulfide formed by oxidant (20 µM p16, 200 µM diamide, or H2O2 with or without 25 mM bicarbonate), 4 mM HEPES pH 7.4, room temperature; free cysteines blocked with 10 mM NEM; non-reducing SDS-PAGE
[4] = molecular target: the molecule itself; assay: Thioflavin-T fluorescence (amyloid formation); 20 µM p16 (series 5-60 µM), 10 µM ThT, oxidant (200 µM diamide, or H2O2 with or without bicarbonate) added at the start, 4 mM HEPES pH 7.4, 25 °C, quiescent

stoichiometry N [1]: 2
Molecule: endogenous p16 of Ishikawa cells (from UniProt P42771 1-156) (natural protein)

stoichiometry N [2]: 2
Molecule: wild-type 6xHis-tagged p16 expressed in HEK293 cells (from UniProt P42771 1-156) (natural protein)

B1: p16^INK4a, wild type (recombinant) (natural protein, human)
chain: GAMEPAAGSSMEPSADWLATAAARGRVEEVRALLEAGALPNAPNSYGRRPIQVMMMGSARVAELLLLHGAEPNCADPATLTRPVHDAAREGFLDTLVVLHRAGARLDVRDAWGRLPVDLAEELGHRDVARYLRAAAGGTRGSNHARIDAAEGPSDIPD
notes: p16INK4a, UniProt P42771; Self-association needs oxidation of Cys72 (diamide or H2O2): intermolecular disulfide dimer, then oligomers and amyloid fibrils; Constructs obtained from Genscript; also called wild-type p16; monomeric p16; source: E. coli BL21(DE3), purified (Ni-NTA, SEC, TEV cleavage, second Ni-NTA, desalting); not shown: His6, N-terminal, cleaved; protein A tag, N-terminal, cleaved
stoichiometry N [3]: 2

B2: p16^INK4a V95A (recombinant) (natural protein, human)
chain: B1 chain with V97A
notes: p16INK4a, UniProt P42771; previously reported cancer mutation; source: E. coli BL21(DE3), purified (Ni-NTA, SEC, TEV cleavage, second Ni-NTA, desalting); not shown: His6, N-terminal, cleaved; protein A tag, N-terminal, cleaved
binding result [4]: binds

B3: p16^INK4a L37S (recombinant, stabilizing mutation) (natural protein, human)
chain: B1 chain with L39S
notes: p16INK4a, UniProt P42771; source: E. coli BL21(DE3), purified (Ni-NTA, SEC, TEV cleavage, second Ni-NTA, desalting); not shown: His6, N-terminal, cleaved; protein A tag, N-terminal, cleaved
binding result [4]: binds

B4: p16^INK4a A127S (recombinant) (natural protein, human)
chain: B1 chain with A129S
notes: as for B2
binding result [4]: binds

B5: p16^INK4a A20S (recombinant) (natural protein, human)
chain: B1 chain with A22S
notes: as for B2
binding result [4]: binds

B6: p16^INK4a G122S (recombinant) (natural protein, human)
chain: B1 chain with G124S
notes: as for B2
binding result [4]: binds

B7: p16^INK4a D84N (recombinant) (natural protein, human)
chain: B1 chain with D86N
notes: as for B2
binding result [4]: binds

Reference: paper PMC11217399, “Amyloid formation and depolymerization of tumor suppressor p16^INK4a are regulated by a thiol-dependent redox mechanism” (Nature Communications, 2024)
